Measured values taken from patent US20240043537A1 (MacroGenics, published 2024).
Positions count from the first letter of the chain named.

Columns and labels:
[1] = molecular target: T1, CD123 on MOLM-13 cells (UniProt P26951 19-378, limits assumed); assay: flow cytometry on CD123-expressing MOLM-13 cells, MFI (geo mean) against concentration (nM)
T1 construct: whole, on cells; also called CD123-expressing MOLM-13 cells
Target sequence in this assay (P26951 19-378 limits assumed): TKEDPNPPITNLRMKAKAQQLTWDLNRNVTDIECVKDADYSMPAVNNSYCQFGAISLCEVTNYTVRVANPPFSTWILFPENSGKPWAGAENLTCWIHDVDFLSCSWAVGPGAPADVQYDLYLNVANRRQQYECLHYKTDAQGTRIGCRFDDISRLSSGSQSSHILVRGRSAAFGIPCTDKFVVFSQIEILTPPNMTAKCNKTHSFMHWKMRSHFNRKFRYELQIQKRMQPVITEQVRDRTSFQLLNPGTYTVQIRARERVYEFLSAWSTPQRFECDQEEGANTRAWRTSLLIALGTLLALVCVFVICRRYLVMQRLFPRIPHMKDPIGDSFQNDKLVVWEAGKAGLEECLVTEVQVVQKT

[2] = molecular target: cyno CD3 (cynomolgus, UniProt Q95LI5 22-117); assay: SPR (BIAcore), diabody 6.25-400 nM over immobilized cyno CD3, 1:1 Langmuir fit
Chain of cyno CD3 (Q95LI5 22-117): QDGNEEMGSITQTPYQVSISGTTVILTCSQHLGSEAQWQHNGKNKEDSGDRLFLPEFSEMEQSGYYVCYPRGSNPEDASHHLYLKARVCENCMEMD
Description: (§1) In additional studies the ability of CD123-binding diabodies: CD123-WT, CD123-M13, CD123-M17 and CD123-M19 to bind to human CD3 and cynomolgus CD3 was also evaluated using BIAcore®. […] Table 15B presents the calculated kₐ, kd and KD.

[3] = molecular target: T2, soluble human CD3 (human, UniProt P07766 23-126); assay: SPR (BIAcore), diabody 6.25-400 nM over immobilized human CD3, 1:1 Langmuir fit
T2 sequence (P07766 23-126): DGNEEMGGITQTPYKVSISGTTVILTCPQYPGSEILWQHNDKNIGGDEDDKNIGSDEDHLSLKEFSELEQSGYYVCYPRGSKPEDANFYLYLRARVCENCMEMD
Description: as §1

[4] = molecular target: T2, soluble human CD3; assay: SPR (BIAcore), diabody over immobilized soluble human CD3, 1:1 fit
Description: (§2) The ability of the CD123-binding diabodies: CD123-WT, CD123-M1, CD123-M2 and CD123-M18 to bind to human CD3 and CD123 was also evaluated using BIAcore®. […] Table 14 presents the calculated kₐ, kd and KD from these studies.

[5] = molecular target: T3, soluble human CD123, His-tagged (human, UniProt P26951 19-305); assay: SPR (BIAcore), diabody over His-tagged CD123 captured on anti-PentaHis, 1:1 fit
T3 construct: Captured on an anti-PentaHis surface; also called soluble CD123; not shown: His tag
T3 sequence (looked up): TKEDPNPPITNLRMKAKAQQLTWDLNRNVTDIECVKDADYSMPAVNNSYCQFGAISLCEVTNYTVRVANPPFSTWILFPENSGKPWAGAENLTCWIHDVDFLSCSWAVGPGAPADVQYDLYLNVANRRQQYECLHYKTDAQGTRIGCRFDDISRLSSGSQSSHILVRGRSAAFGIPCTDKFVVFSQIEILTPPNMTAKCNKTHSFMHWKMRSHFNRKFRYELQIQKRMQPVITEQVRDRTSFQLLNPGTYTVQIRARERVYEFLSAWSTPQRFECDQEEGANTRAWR
Description: as §2

[6] = molecular target: T4, CD8 on CD8+ T-cells (UniProt P01732 22-235; P10966 22-210); assay: flow cytometry on CD8+ T-cells, MFI (geo mean) against concentration (nM); CD123-WT is the diabody comparator without a CD8-Binding Domain
T4 construct: whole, on cells; also called CD8 expressing CD8+ T-cells
T4 sequence (P01732 22-235, chain 1 of 2): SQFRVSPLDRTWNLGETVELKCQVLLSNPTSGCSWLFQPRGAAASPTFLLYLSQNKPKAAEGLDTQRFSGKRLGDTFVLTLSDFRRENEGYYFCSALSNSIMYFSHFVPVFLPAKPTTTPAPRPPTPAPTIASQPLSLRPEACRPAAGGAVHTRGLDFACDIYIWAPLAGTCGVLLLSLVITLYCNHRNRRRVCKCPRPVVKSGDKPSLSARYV
T4 sequence (P10966 22-210, chain 2 of 2): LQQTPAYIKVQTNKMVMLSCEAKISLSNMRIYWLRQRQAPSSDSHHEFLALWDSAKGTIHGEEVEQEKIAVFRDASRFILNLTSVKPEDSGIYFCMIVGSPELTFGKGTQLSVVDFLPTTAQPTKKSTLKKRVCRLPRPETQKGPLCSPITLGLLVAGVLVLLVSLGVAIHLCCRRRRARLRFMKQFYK

[7] = molecular target: T1, CD123 on MOLM-13 cells; assay: Flow cytometry on MOLM-13 cells; detection with biotinylated anti-E/K-coil antibody and streptavidin-PE
Description: FIG. 9A-9B show the ability of DART-B-type diabodies to bind to Disease Antigens. […] Binding was detected using biotinylated antibody specific for the diabodies' E/K coils and streptavidin-phycoerythrin (PE).
The ability of such diabodies to bind to their respective Disease Antigen (i.e., CD123 or 5T4) on the surface of MOLM-13 leukemia (CD123) or A-498 kidney carcinoma (5T4) target cancer cells was assessed using FACS. Briefly, cells were incubated with the diabody molecules (in FACS buffer containing 10% human AB serum) in microtiter plates. The cells were washed and incubated with biotin-conjugated mouse anti-EK-coil antibody that recognizes the E-coil/K-coil (EK) Heterodimer-Promoting Domain of the diabodies mixed with streptavidin-phycoerythrin.

B1: T-CD123-WT (other)
chain 1: DFVMTQSPDSLAVSLGERVTMSCKSSQSLLNSGNQKNYLTWYQQKPGQPPKLLIYWASTRESGVPDRFSGSGSGTDFTLTISSLQAEDVAVYYCQNDYSYPYTFGQGTKLEIKGGGSGGGGEVQLVESGGGLVQPGGSLRLSCAASGFTFSTYAMNWVRQAPGKGLEWVGRIRSKYNNYATYYADSVKDRFTISRDDSKNSLYLQMNSLKTEDTAVYYCVRHGNFGNSYVSWFAYWGQGTLVTVSSGGCGGGEVAALEKEVAALEKEVAALEKEVAALEKGGGDKTHTCPPCPAPEAAGGPSVFLFPPKPKDTLMISRTPEVTCVVVDVSHEDPEVKFNWYVDGVEVHNAKTKPREEQYNSTYRVVSVLTVLHQDWLNGKEYKCKVSNKALPAPIEKTISKAKGQPREPQVYTLPPSREEMTKNQVSLWCLVKGFYPSDIAVEWESNGQPENNYKTTPPVLDSDGSFFLYSKLTVDKSRWQQGNVFSCSVMHEALHNHYTQKSLSLSPGK
chain 2: QAVVTQEPSLTVSPGGTVTLTCRSSTGAVTTSNYANWVQQKPGQAPRGLIGGTNKRAPWTPARFSGSLLGGKAALTITGAQAEDEADYYCALWYSNLWVFGGGTKLTVLGGGGSGGGGEVQLVQSGAELKKPGASVKVSCKASGYTFTDYYMKWVRQAPGQGLEWIGDIIPSNGATFYNQKFKGRVTITVDKSTSTAYMELSSLRSEDTAVYYCARSHLLRASWFAYWGQGTLVTVSSGGCGGGKVAALKEKVAALKEKVAALKEKVAALKE
heavy: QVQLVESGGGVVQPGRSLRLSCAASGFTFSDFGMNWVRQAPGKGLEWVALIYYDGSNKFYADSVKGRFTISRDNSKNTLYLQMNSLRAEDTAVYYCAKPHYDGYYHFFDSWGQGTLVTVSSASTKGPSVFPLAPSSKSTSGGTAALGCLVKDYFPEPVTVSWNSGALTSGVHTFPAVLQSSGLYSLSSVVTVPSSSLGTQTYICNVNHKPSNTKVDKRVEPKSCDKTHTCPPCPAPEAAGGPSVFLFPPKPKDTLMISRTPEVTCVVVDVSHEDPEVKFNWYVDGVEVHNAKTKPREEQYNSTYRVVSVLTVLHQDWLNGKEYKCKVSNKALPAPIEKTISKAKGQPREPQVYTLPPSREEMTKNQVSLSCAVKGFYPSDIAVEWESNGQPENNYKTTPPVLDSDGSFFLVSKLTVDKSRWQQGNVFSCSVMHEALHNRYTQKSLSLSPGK
light: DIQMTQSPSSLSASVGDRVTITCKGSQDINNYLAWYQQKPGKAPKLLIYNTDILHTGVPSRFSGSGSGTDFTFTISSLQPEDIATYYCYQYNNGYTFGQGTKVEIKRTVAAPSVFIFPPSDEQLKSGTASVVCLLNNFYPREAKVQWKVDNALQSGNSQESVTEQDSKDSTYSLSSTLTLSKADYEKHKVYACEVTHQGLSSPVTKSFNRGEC
notes: Four-chain trivalent CD123 x CD3 x CD8 molecule with Fc; also called CD123 mAb 1 x CD3 mAb 1 x TRX2 TRIVALENT-type molecule
[1]
  binding result: binds

B2: CD123-M19 (bispecific antibody)
chain 1: B1 chain 1 with G223K, F225I
chain 2: B1 chain 2
chain 3: not shown
notes: Three-chain diabody with Fc; also called CD123 x CD3 mAb 1 M19 DART-B-type diabody
[2]
  Kd: 227 nM
[3]
  Kd: 218 nM

B3: CD123-M13 (bispecific antibody)
chain 1: B1 chain 1 with Y235E
chain 2: B1 chain 2
chain 3: not shown
notes: Three-chain diabody with Fc; also called CD123 x CD3 mAb 1 M13 DART-B-type diabody
[2]
  Kd: 580 nM
[3]
  Kd: 458 nM

B4: CD123-WT (bispecific antibody)
chain 1: B1 chain 1
chain 2: B1 chain 2
chain 3: not shown
notes: Three-chain diabody with Fc; also called CD123 x CD3 mAb 1 DART-B-type diabody
[4]
  Kd: 67 nM
[2]
  Kd: 39 nM
[5]
  Kd: 2 nM
[3]
  Kd: 52 nM
[6]
  binding result: no binding (tested: 100 nM)

B5: CD123-M17 (bispecific antibody)
chain 1: B1 chain 1 with Y153T
chain 2: B1 chain 2
chain 3: not shown
notes: Three-chain diabody with Fc; also called CD123 x CD3 mAb 1 M17 DART-B-type diabody
[2]
  Kd: 329 nM
[3]
  Kd: 290 nM

B6: CD123-M1 (bispecific antibody)
chain 1: B1 chain 1 with S231T
chain 2: B1 chain 2
chain 3: not shown
notes: Three-chain diabody with Fc; also called CD123 x CD3 mAb 1 M1 DART-B-type diabody
[4]
  Kd: 842 nM
[5]
  Kd: 1.2 nM
[7]
  EC50 (read off the curve): ~2 nM

B7: CD123-M2 (bispecific antibody)
chain 1: B1 chain 1 with G223K, S231T
chain 2: B1 chain 2
chain 3: not shown
notes: Three-chain diabody with Fc; also called CD123 x CD3 mAb 1 M2 DART-B-type diabody
[4]
  Kd: 108 nM
[5]
  Kd: 1.1 nM

B8: T-CD123-M2 (other)
chain 1: B1 chain 1 with G223K, S231T
chain 2: B1 chain 2
heavy: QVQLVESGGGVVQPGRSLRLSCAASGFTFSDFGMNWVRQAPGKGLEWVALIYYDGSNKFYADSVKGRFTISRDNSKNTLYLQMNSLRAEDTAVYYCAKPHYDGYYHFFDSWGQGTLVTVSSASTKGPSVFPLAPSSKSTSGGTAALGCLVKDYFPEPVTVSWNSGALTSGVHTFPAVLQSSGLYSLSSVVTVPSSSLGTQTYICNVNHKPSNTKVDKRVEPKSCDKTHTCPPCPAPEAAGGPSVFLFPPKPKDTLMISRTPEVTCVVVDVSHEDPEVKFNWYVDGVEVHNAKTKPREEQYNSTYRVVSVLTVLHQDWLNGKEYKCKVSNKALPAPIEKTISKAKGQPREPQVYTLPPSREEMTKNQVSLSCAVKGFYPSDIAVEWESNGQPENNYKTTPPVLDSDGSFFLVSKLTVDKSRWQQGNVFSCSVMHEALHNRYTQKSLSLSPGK
light: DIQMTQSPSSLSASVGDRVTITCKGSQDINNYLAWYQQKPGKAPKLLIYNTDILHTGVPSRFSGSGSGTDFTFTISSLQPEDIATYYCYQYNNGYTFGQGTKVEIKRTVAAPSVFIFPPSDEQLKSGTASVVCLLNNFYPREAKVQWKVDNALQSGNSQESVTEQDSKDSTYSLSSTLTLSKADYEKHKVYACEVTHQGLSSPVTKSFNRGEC
notes: Four-chain trivalent CD123 x CD3 x CD8 molecule with Fc; also called CD123 mAb 1 x CD3 mAb 1 M2 x TRX2 TRIVALENT-type molecule
[1]
  binding result: binds

B9: T-CD123-M18 (other)
chain 1: B1 chain 1 with A154G
chain 2: B1 chain 2
heavy: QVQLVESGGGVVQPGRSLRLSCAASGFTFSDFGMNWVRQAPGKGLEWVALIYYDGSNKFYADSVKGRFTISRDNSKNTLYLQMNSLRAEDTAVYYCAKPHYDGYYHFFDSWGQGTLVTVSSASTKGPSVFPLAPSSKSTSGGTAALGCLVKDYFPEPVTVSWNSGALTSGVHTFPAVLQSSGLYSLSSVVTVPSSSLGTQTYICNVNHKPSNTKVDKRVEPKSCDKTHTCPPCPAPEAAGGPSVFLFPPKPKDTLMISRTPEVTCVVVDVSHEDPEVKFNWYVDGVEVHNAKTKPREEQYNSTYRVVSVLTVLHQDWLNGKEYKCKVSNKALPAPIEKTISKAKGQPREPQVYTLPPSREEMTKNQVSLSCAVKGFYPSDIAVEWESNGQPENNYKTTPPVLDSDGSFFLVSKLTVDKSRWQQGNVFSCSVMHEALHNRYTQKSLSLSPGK
light: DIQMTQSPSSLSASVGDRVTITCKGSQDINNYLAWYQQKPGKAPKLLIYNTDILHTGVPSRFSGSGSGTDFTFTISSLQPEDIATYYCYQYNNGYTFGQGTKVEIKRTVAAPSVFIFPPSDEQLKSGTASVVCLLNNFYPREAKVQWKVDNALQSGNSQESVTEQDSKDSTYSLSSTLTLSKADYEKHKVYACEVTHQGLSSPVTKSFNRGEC
notes: Four-chain trivalent CD123 x CD3 x CD8 molecule with Fc; also called CD123 mAb 1 x CD3 mAb 1 M18 x TRX2 TRIVALENT-type molecule
[1]
  binding result: binds

B10: CD123-M18 (bispecific antibody)
chain 1: B1 chain 1 with A154G
chain 2: B1 chain 2
chain 3: not shown
notes: Three-chain diabody with Fc; also called CD123 x CD3 mAb 1 M18 DART-B-type diabody
[4]
  Kd: 593 nM
[5]
  Kd: 2.3 nM

B11: T-CD123-M1 (other)
chain 1: B1 chain 1 with S231T
chain 2: B1 chain 2
heavy: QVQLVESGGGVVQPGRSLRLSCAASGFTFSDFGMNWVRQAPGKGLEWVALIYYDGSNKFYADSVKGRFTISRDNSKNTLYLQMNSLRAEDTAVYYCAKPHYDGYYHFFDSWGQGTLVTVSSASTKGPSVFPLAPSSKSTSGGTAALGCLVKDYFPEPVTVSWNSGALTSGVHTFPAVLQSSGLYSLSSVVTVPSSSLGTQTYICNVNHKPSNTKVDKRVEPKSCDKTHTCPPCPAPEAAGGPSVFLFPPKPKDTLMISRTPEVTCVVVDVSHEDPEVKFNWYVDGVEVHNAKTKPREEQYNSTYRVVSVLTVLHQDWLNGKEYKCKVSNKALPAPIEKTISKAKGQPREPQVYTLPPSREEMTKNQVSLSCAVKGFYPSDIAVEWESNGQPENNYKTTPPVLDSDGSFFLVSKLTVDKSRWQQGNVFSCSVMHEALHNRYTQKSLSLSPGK
light: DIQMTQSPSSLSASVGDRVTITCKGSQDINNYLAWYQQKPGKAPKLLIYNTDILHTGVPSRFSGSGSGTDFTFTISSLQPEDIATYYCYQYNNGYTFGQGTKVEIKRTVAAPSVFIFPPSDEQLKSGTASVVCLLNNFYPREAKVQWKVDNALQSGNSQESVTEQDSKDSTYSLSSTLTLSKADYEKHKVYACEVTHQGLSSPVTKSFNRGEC
notes: Four-chain trivalent CD123 x CD3 x CD8 molecule with Fc; also called CD123 mAb 1 x CD3 mAb 1 M1 x TRX2 TRIVALENT-type molecule
[1]
  binding result: binds
